# In doi:10.1101/2023.06.22.546067 (bioRxiv, 2023):
# Residue numbers refer to the chain shown, from its start. In names and notes the source's numbering stands.
# B1: phage P4 polarity suppression protein Psu, wild-type (Psu^wt), purified (natural protein)
# chain: MESTALQQAFDTCQNNKAAWLQRKNELAAAEQEYLRLLSGEGRNVSRLDELRNIIEVRKWQVNQAAGRYIRSHEAVQHISIRDRLNDFMQQHGTALAAALAPELMGYSELTAIARNCAIQRATDALREALLSWLAKGEKINYSAQDSDILTTIGFRPDVASVDDSREKFTPAQNMIFSRKSAQLASRQSV
# B2: Psu variant R43A (Psu^R43A), purified (natural protein)
# chain: B1 chain with R43A
# What was measured:
# cryo-EM structure = target: the molecule itself; assay: cryo-EM structure
# [1] = target: T1, transcription termination factor ρ variant P167L (ρ^P167L), purified (E. coli, UniProt P0AG30, P167L); assay: stopped-flow/FRET
# [2] = target: T1, transcription termination factor ρ …; assay: SEC
Binder,stoichiometry N (cryo-EM structure),binding result [1],binding result [2]
B1,2,binds,
B2,,,binds
